Measured values from patent US20240409935A1, “Atg8ylation coordinates stress granule formation and mTOR inactivation in response to lysosomal damage” (priority 2023, published 2024).

Molecular target: T1, GST-tagged NUFIP2 (Homo sapiens (Human)) (UniProt Q7Z417)
T1 sequence: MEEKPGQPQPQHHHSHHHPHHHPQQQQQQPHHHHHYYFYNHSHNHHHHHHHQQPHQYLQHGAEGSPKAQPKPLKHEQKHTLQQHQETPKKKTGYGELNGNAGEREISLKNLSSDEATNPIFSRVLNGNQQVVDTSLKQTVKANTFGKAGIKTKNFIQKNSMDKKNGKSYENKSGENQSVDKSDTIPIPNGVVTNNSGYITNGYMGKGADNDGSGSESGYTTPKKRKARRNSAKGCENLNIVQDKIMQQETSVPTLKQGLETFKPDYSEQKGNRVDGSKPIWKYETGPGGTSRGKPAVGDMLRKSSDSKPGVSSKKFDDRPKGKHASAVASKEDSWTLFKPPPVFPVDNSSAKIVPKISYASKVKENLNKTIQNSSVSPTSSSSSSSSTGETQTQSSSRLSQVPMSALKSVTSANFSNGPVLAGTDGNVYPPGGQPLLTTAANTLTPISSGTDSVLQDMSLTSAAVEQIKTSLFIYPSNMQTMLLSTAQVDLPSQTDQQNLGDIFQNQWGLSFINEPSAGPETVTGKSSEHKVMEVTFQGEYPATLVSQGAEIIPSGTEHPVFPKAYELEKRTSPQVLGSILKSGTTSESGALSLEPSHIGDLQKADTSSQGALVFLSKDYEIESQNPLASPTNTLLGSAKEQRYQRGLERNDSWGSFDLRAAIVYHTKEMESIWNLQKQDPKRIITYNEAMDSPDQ
Experiment: GST pulldown of in vitro translated radiolabeled Myc-G3BP1 with GST-NUFIP2

Chain of Myc-tagged G3BP1 (in vitro translated and radiolabeled) (Q13283 whole entry): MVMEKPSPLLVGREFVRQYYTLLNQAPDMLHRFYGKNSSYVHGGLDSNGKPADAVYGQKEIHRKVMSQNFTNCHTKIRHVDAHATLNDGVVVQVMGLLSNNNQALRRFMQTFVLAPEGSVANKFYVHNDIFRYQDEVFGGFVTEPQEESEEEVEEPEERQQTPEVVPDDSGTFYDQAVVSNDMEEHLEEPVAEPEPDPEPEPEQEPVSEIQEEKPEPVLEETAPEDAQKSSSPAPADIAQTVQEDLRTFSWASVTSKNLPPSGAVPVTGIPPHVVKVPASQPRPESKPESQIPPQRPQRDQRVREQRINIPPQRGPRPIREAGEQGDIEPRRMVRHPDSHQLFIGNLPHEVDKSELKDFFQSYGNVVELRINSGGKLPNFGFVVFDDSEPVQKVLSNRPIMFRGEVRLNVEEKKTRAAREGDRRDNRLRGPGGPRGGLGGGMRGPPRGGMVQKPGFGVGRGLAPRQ

% binding (percent of the input bound): 60%
Substance: Myc-tagged G3BP1 (in vitro translated and radiolabeled) (from UniProt Q13283 1-466)
